{"source": "patent US20230151437A1", "about": "“USE OF PROTEIN ASSEMBLIES TO RECORD CELLULAR EVENTS” (President and Fellows of Harvard College, priority 2021, published 2023)", "key": {"cultured neurons [1]": {"system": "cultured neurons", "assay": "Live-dead assay in cultured neurons expressing iPAK4 assemblies", "type": "cell-based, rat", "details": "assemblies grown for 6 days", "description": "Related to FIG. 5. […] Staining of live cells (calcein-AM) and dead cells (EthD-1) is shown. The assay was performed at day 6 after lentiviral infection. Many iPAK4 assemblies are present in FIG. 22A (assemblies share the channel with calcein-AM). Scale bars: 200 μm. FIG. 22C provides a statistical comparison of the live-cell and dead-cell populations, and the dead/live cell ratio in iPAK4+ and iPAK4− groups (N=5 fields of view per group).\nTo test for effects of iPAK4 assemblies on neuronal survival, iPAK4 (95%) and HT-iPAK4 (5%) were lentivirally expressed in cultured neurons, the assemblies were allowed to grow for 6 days, and then a live-dead assay was performed (FIGS. 22A-22C). […] The iPAK4-expressing neurons had typical soma and neurite structures, similar to those observed in healthy neurons.\nPrimary neuron culture: Before the plating of primary hippocampal neurons, 14 mm glass-bottom dishes were first incubated with 40 μg/ml poly-D-lysine (PDL) in PBS at room temperature for 1 h and subsequentially with 20 μg/ml laminin (Fisher Scientific; 23-017-015) at 4° C. overnight, followed by thorough wash with PBS. […] Neuronal health was monitored daily from DIV1 to DIV7. […]"}, "HEK cells [2]": {"system": "HEK cells", "assay": "HT dye switch fluorescence profiles of HT-iPAK4 assemblies in HEK cells", "type": "cell-based", "details": "dishes fixed at 8 h vs 30 h (22 h, one day)", "description": "To test whether assemblies could encode HT dye timestamps, HEK cells growing HT-iPAK4 assemblies were successively washed with different colors of HT-ligand dyes at Δt=2 h intervals in the sequence JF503, JF669, JFX608, JF503, JF669 (FIG. 2A; see FIGS. 11A-11B for dye structures, photophysical properties, and synthesis of JFX608). The cells were then fixed and imaged with spectrally resolved confocal microscopy. Clear progression of colored bands matching the sequence of dye additions was observed.\nTo test the limits of how fast dye transitions could be encoded, assemblies were made with seven dye switches at Δt=1 h. At this short interval, peaks were still visible, but their amplitude was suppressed relative to the parts of the assembly with no dye switches, indicating incomplete transitions in dye labeling (FIG. 12E).\nA protein ticker tape may stably store its information for extended times. […] The fluorescence profiles for the section of the assemblies that grew concurrently (from t=0 to 8 h) were then compared. […]\nImage processing and data analysis: Images of individual assemblies were rotated to align the long axis to the x-axis. Fluorescence profiles were then calculated as the median fluorescence in each spectral channel across the width of the assembly. […] Dye transitions were identified as local maxima in the second derivative of the dye fluorescence as a function of position. […]"}, "cultured neurons [3]": {"system": "cultured neurons", "assay": "Patch clamp electrophysiology of neurons with iPAK4 assemblies", "type": "cell-based, rat", "details": "N=11, mean±s.e.m.", "description": "FIGS. 5A-5H show protein ticker tape recordings of cFos activation in neurons. FIG. 5A provides an image of a cultured neuron expressing lentiviral CMV::iPAK4 (90%) and CMV::eGFP-iPAK4 (10%). Scale bar 50 μm. […] Spikes were evoked by a current injection of 100 pA. […] Error bars show mean±s.e.m. Two-sided Student's t-test was employed for data comparison. […] Scale bar 5 μm.\nWhether iPAK4 assemblies affected neuronal electrophysiology was then tested. Neurons infected with lentivirus encoding CMV::iPAK4 (90%) and CMV::eGFP-iPAK4 (10%) grew single straight assemblies (FIG. 5A). Patch clamp recordings were used to compare the electrophysiology of neurons with and without assemblies. Although in many cases the assembly length was several times longer than the soma diameter, neurons with assemblies spiked normally (FIG. 5B), and had membrane resistance, membrane capacitance, resting potential, and rheobase that were statistically indistinguishable from neurons without assemblies (N=11 neurons with assemblies, N=12 without, two-sided Student's t-test, FIG. 5C).\nPatch clamp electrophysiology: Whole-cell recordings were performed in extracellular buffer containing (in mM): 125 NaCl, 2.5 KCl, 15 HEPES, 25 D-glucose, 1 MgCl2, and 2 CaCl2 (pH=7.2-7.3 with NaOH). Assembly-forming and non-forming (control) neurons were visualized with a home-built inverted epifluorescence microscope. Experiments were made at 23° C. under ambient atmosphere. The whole-cell internal solution comprised (in mM): 8 NaCl, 130 KMeSO3, 10 HEPES, 5 KCl, 0.5 EGTA, 4 Mg-ATP, and 0.3 Na3-GTP. The pH was adjusted to 7.2-7.3 with KOH and osmolarity was set to 290-295 mOsm/L. Borosilicate glass pipettes were used with a resistance of 3-5 MΩ (1.5 mm OD). Signals were acquired and filtered at 4 kHz with the internal Bessel filter using a Multiclamp 700B (Molecular Devices) and digitized with PCIe-6323 (National Instruments) at 10 kHz. Following the whole-cell configuration, membrane capacitance (Cm), and membrane resistance (Rm) were estimated under voltage-clamp mode. Measurements of resting membrane potential (Vrest), rheobase, and spike rates were made under current-clamp mode. Rheobase was defined as the minimum current step (in 500 ms duration) required for any spike onset. Whole-cell recordings were monitored and analyzed using a custom code written in LabView and Matlab."}, "HEK cells [4]": {"system": "HEK cells", "assay": "Live-dead assay in HEK cells expressing iPAK4 assemblies", "type": "cell-based", "details": "n=24 fields of view", "excerpt": "FIGS. 9A-9C show a live-dead assay to assess the effect of iPAK4 assemblies on cell health. Related to FIG. 1A, FIG. 9A provides images of HEK293T cells expressing CMV::iPAK4 (95%) and CMV::HT-iPAK4 (5%). Many iPAK4 assemblies can be identified in a magnified view. […] Live cells (calcein-AM), dead cells (EthD-1), and HaloTag-iPAK4 stained with JFX608 are shown. FIG. 9C provides a statistical comparison of the dead cell population in iPAK4+ and iPAK4− groups. Each point represents one field of view. Two dishes per condition were investigated. […] The statistical comparison was performed by student's t-test. Lower and upper bounds of the box plot: 25th and 75th percentile; lower and upper whiskers: minimum and maximum; squares: mean; center lines: median.\nIt was then determined whether the iPAK4 assemblies affect cell survival, as the assemblies often grew longer than the cell diameters (FIG. 6A)."}}}
{"molecule": "iPAK4: fusion of the catalytic domain of the Pak4 kinase and the 38 amino acid iBox domain of its inhibitor Inka1 (SEQ ID NO: 1) (protein) MDYKDDDDKSGSEAEDWTAALLNRGRSRQPLVLGDNCFADLVHNWMELPEEFPAAPAVPGPPGPRSPQREPQRVSHEQFRAALQLVVDPGDPRSYLDNFIKIGEGSTGIVCIATVRSSGKLVAVKKMDLRKQQRRELLFNEVVIMRDYQHENVVEMYNSYLVGDELWVVMEFLEGGALTDIVTHTRMNEEQIAAVCLAVLQALSVLHAQGVIHRDIKSDSILLTHDGRVKLSDFGFCAQVSKEVPRRKSLVGTPYWMAPELISRLPYGPEVDIWSLGIMVIEMVDGEPPYFNEPPLKAMKMIRDNLPPRLKNLHKVSPSLKGFLDRLLVRDPAQRATAAELLKHPFLAKAGPPASIVPLMRQNRTR", "values": [{"measurement": "fraction of dead cells vs dishes not infected with any lentivirus", "setting": "cultured neurons [1]", "value": "no significant difference"}, {"measurement": "monomer exchange in the assembly", "setting": "HEK cells [2]", "value": "negligible"}, {"measurement": "membrane capacitance", "setting": "cultured neurons [3]", "value": "63±6", "unit": "pF"}, {"measurement": "membrane resistance", "setting": "cultured neurons [3]", "value": "404±73", "unit": "MΩ"}, {"measurement": "resting potential", "setting": "cultured neurons [3]", "value": "−61.2±1.2", "unit": "mV"}, {"measurement": "rheobase", "setting": "cultured neurons [3]", "value": "89±12", "unit": "pA"}, {"measurement": "dead cells", "setting": "HEK cells [4]", "value": "0.267±0.139", "unit": "%"}]}
